From IntAct's records for PubMed 15483055

Molecular target: pakc_dicdi pakC (UniProt Q55GV3)
Sequence (Q55GV3 whole entry): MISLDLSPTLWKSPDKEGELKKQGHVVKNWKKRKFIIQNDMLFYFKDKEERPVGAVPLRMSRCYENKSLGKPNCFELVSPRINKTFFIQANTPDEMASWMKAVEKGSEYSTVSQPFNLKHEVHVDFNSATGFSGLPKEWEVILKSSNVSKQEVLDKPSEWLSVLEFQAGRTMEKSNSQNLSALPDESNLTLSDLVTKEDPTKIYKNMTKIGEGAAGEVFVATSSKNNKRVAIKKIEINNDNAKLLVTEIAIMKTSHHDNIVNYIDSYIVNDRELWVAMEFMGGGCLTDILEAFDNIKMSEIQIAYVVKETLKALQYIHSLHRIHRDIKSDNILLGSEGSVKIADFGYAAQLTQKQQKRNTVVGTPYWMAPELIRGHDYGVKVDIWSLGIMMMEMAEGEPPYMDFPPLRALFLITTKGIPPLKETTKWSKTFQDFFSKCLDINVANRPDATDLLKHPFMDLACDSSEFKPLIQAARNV

Chain of Rho-related protein racB (Dictyostelium discoideum (Slime mold)), P34148 T17N (P34148 whole entry T17N): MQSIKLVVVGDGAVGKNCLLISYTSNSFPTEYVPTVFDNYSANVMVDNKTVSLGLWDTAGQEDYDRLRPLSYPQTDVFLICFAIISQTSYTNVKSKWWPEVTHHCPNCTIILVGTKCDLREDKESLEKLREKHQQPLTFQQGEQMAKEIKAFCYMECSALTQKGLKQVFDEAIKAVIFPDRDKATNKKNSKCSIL

Question: How did the “effect of a mutation on the interaction” value turn out when “Rho-related protein racB (Dictyostelium discoideum (Slime mold)), P34148 T17N” was run?
Answer: decreasing interaction
